Assay results published in the supplement of paper PMC6755084.

B1: F1*; the commonest letter at each place (parent)
chain: GAGACCGCAACTGAAAAGTTGTTATCACTTGTCGTAAGACACTTTGGATGGGTTGAAGTTCTGCACGTAGAAGCAAAAGGC

Variants of: B1
Assay: fraction ligated after 30 min (ligated reads / total reads); higher = more ligase activity
Details: with F1*sub RNA substrate (template-directed ligation), 42 °C
Procedure, shortened: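 Oligo-pool templates underwent PCR amplification, T7 transcription and gel purification to yield ribozyme variants. Gel-separated ligated and unligated bands were converted to complementary DNA with barcoded primers and sequenced on a MiSeq, keeping core bases of quality ≥20. The ratio of ligated reads to total reads gave the fraction ligated for every variant.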
Work on GAGACCGCAACTGAAAAGTTGTTATCACTTGTCGTAAGTCACTTGGGATGGGTTGAAGTTCTGCACGTAGAAGCAAAAGGC [A39T T45G] yielded a fraction ligated of 0.1.
In the case of GAGACCGCAACTGAAAAGTTGTTATCACTTGTCGTAAGGCACTCTGGATGGGTTGAAGTTCTGCACGTAGAAGCAAAAGGC [A39G T44C], the fraction ligated is reported as 0.849.
Work on GAGACCGCAACTGAAAAGTTGTTATCACTTGTCGTAAGGCACTGTGGATGGGTTGAAGTTCTGCACGTAGAAGCAAAAGGC [A39G T44G] yielded a fraction ligated of 0.836.
For GAGACCGCAACTGAAAAGTTGTTATCACTTGTCGTAAGGCACTATGGATGGGTTGAAGTTCTGCACGTAGAAGCAAAAGGC [A39G T44A], the fraction ligated was 0.816.
GAGACCGCAACTGAAAAGTTGTTATCACTTGTCGTAAGTCACTTTGGATGGGTTGACGTTCTGCACGTAGAAGCAAAAGGC [A39T A57C] showed a fraction ligated of 0.792.
Variant GAGACCGCAACTGAAAAGTTGTTATCACTTGTCGTAAGTCACTTTGGATGGGTTGATGTTCTGCACGTAGAAGCAAAAGGC [A39T A57T] has a fraction ligated of 0.781.
Variant GAGACCGCAACTGAAAAGTTGTTATCACTTGTCGTAAGTCACTTTGGATGGGTTGAGGTTCTGCACGTAGAAGCAAAAGGC [A39T A57G] has a fraction ligated of 0.869.
Work on GAGACCGCAACTGAAAAGTTGTTATCACTTGTCGTAAGTCACTTTGGATGGGTTTAAGTTCTGCACGTAGAAGCAAAAGGC [A39T G55T] yielded a fraction ligated of 0.804.
GAGACCGCAACTGAAAAGTTGTTATCACTTGTCGTAAGTCACTTTGGATGGGTTAAAGTTCTGCACGTAGAAGCAAAAGGC [A39T G55A] gave a fraction ligated of 0.786.
GAGACCGCAACTGAAAAGTTGTTATCACTTGTCGTAAGTCACTTTGGATGGGTTCAAGTTCTGCACGTAGAAGCAAAAGGC [A39T G55C] gave a fraction ligated of 0.738.
For GAGACCGCAACTGAAAAGTTGTTATCACTTGTCGTAAGTCACTTTAGATGGGTTGAAGTTCTGCACGTAGAAGCAAAAGGC [A39T G46A], the fraction ligated was 0.805.
For GAGACCGCAACTGAAAAGTTGTTATCACTTGTCGTAAGTCACTTTTGATGGGTTGAAGTTCTGCACGTAGAAGCAAAAGGC [A39T G46T], the fraction ligated was 0.771.
Work on GAGACCGCAACTGAAAAGTTGTTATCACTTGTCGTAAGTCACTTTCGATGGGTTGAAGTTCTGCACGTAGAAGCAAAAGGC [A39T G46C] yielded a fraction ligated of 0.64.
GAGACCGCAACTGAAAAGTTGTTATCACTTGTCGTAAGAAACTTTGGATGGGTTGACGTTCTGCACGTAGAAGCAAAAGGC [C40A A57C] was tested, and the fraction ligated was 0.812.
GAGACCGCAACTGAAAAGTTGTTATCACTTGTCGTAAGAAACTTTGGATGGGTTGAGGTTCTGCACGTAGAAGCAAAAGGC [C40A A57G] gave a fraction ligated of 0.843.
GAGACCGCAACTGAAAAGTTGTTATCACTTGTCGTAAGTGACTTTGGATGGGTTGAAGTTCTGCACGTAGAAGCAAAAGGC [A39T C40G] gave a fraction ligated of 0.808.
GAGACCGCAACTGAAAAGTTGTTATCACTTGTCGTAAGTAACTTTGGATGGGTTGAAGTTCTGCACGTAGAAGCAAAAGGC [A39T C40A] gave a fraction ligated of 0.818.
Variant GAGACCGCAACTGAAAAGTTGTTATCACTTGTCGTAAGTTACTTTGGATGGGTTGAAGTTCTGCACGTAGAAGCAAAAGGC [A39T C40T] has a fraction ligated of 0.809.
GAGACCGCAACTGAAAAGTTGTTATCACTTGTCGTAAGTCACTTTGGAAGGGTTGAAGTTCTGCACGTAGAAGCAAAAGGC [A39T T49A] showed a fraction ligated of 0.717.
Variant GAGACCGCAACTGAAAAGTTGTTATCACTTGTCGTAAGTCACTTTGGACGGGTTGAAGTTCTGCACGTAGAAGCAAAAGGC [A39T T49C] has a fraction ligated of 0.0992.
GAGACCGCAACTGAAAAGTTGTTATCACTTGTCGTAAGTCACTTTGGAGGGGTTGAAGTTCTGCACGTAGAAGCAAAAGGC [A39T T49G] was tested, and the fraction ligated was 0.769.
In the case of GAGACCGCAACTGAAAAGTTGTTATCACTTGTCGTAAGAAGCTTTGGATGGGTTGAAGTTCTGCACGTAGAAGCAAAAGGC [C40A A41G], the fraction ligated is reported as 0.766.
For GAGACCGCAACTGAAAAGTTGTTATCACTTGTCGTAAGAATCTTTGGATGGGTTGAAGTTCTGCACGTAGAAGCAAAAGGC [C40A A41T], the fraction ligated was 0.81.
Variant GAGACCGCAACTGAAAAGTTGTTATCACTTGTCGTAAGAACCTTTGGATGGGTTGAAGTTCTGCACGTAGAAGCAAAAGGC [C40A A41C] has a fraction ligated of 0.811.
For GAGACCGCAACTGAAAAGTTGTTATCACTTGTCGTAAGGCACTTCGGATGGGTTGAAGTTCTGCACGTAGAAGCAAAAGGC [A39G T45C], the fraction ligated was 0.792.
GAGACCGCAACTGAAAAGTTGTTATCACTTGTCGTAAGGCACTTGGGATGGGTTGAAGTTCTGCACGTAGAAGCAAAAGGC [A39G T45G] gave a fraction ligated of 0.389.
GAGACCGCAACTGAAAAGTTGTTATCACTTGTCGTAAGGCACTTAGGATGGGTTGAAGTTCTGCACGTAGAAGCAAAAGGC [A39G T45A] gave a fraction ligated of 0.784.
With GAGACCGCAACTGAAAAGTTGTTATCACTTGTCGTAAGAAACTTTGGCTGGGTTGAAGTTCTGCACGTAGAAGCAAAAGGC [C40A A48C] the fraction ligated was 0.658.
With GAGACCGCAACTGAAAAGTTGTTATCACTTGTCGTAAGAAACTTTGGTTGGGTTGAAGTTCTGCACGTAGAAGCAAAAGGC [C40A A48T] the fraction ligated was 0.0719.
In the case of GAGACCGCAACTGAAAAGTTGTTATCACTTGTCGTAAGAAACTTTGGGTGGGTTGAAGTTCTGCACGTAGAAGCAAAAGGC [C40A A48G], the fraction ligated is reported as 0.739.
For GAGACCGCAACTGAAAAGTTGTTATCACTTGTCGTAAGGCACTTTGGATGGGTTTAAGTTCTGCACGTAGAAGCAAAAGGC [A39G G55T], the fraction ligated was 0.819.
GAGACCGCAACTGAAAAGTTGTTATCACTTGTCGTAAGTCATTTTGGATGGGTTGAAGTTCTGCACGTAGAAGCAAAAGGC [A39T C42T] was tested, and the fraction ligated was 0.829.
Work on GAGACCGCAACTGAAAAGTTGTTATCACTTGTCGTAAGTCAATTTGGATGGGTTGAAGTTCTGCACGTAGAAGCAAAAGGC [A39T C42A] yielded a fraction ligated of 0.846.
With GAGACCGCAACTGAAAAGTTGTTATCACTTGTCGTAAGTCAGTTTGGATGGGTTGAAGTTCTGCACGTAGAAGCAAAAGGC [A39T C42G] the fraction ligated was 0.817.
